The source of these data is US20220356229A1.

The target of assay [1] is full length Spike of WIV1 (WIV1).
Assay [2] addresses SARS-CoV-2 full length Spike protein, wild type (SARS-CoV-2), P0DTC2. Particulars: remark: other sources report otherwise.
The target of assay [3] is SARS-CoV-2 Spike (S) protein, wild type, full length (SARS-CoV-2), P0DTC2. Particulars: remark: other sources report otherwise.

Values joined by “and” are separate entries in the source; they are usually repeats but may differ in a detail not shown here. Equal values may be shown once.

B1: anti-SARS-CoV-2 antibody 304 (antibody, V domains shown)
VH: EVQLLESGGGLVQPGGSLRLSCAASGFTFSTYAMSWVRQAPGKGLEWVSAISGSGGSTYYADSVKGRFTISRDNSKNTLYLQMNSLRAEDTAVYYCASGYSPDYWGQGTLVTVSS
VL: AIQMTQSPSSLSASVGDRVTITCRASQGIRNDLGWYQQKPGKAPKLLIYAASSLQSGVPSRFSGSGSGTDFTLTISSLQPEDFATYYCLQDYNYPRTFGQGTKVEIK
Take B1: the fold over isotype control (median fluorescence) (fold over isotype) in assay [1] was 1.01 and 1.04.

B2: antibody 396 (antibody, V domains shown)
VH: QVQLQQWGAGLLKPSETLSLTCAVYGGSFSGYYWSWIRQPPGKGLEWIGEIIHSGSTNYNPSLKSRVTISVDTSKNQFSLKLSSVTAADTAVYYSARRTGLLWFREGSYYFDYWGQGTLVTVSS
VL: DIQMTQSPSSLSASVGDRVTITCRASQGIRNDLGWYQQKPGKAPKRLIYAASSLQSGVPSRFSGSGSGTEFTLTISSLQPEDFATYYCLQHNSYPLTFGGGTKVEIK
Turning to B2, in assay [2], the fold over isotype control (median fluorescence) (fold over isotype) was determined as 553.

B3: antibody 521 (antibody, V domains shown)
VH: QVQLVESGGGVVQPGRSLRLSCAASGFTFSSYGMHWVRQAPGKGLEWVAVIWYDGSNKYYADSVKGRFTISRDNSKNTLYLQMNSLRAEDTAVYYCAREGNDYGDYGEWELLGYFDYWGQGTLVTVSS
VL: SYELTQPPSVSVSPGQTARITCSGDALPKKYAYWYQQKSGQAPVLVIYEDSKRPSGIPERFSGSSSGTMATLTISGAQVEDEADYYCYSTDSSGNHRRVFGGGTKLTVL
On to B3, for which the median fluorescence, fold over isotype control (fold over isotype) in assay [3] was determined as 0.86.

B4: antibody 322 (antibody, V domains shown)
VH: EVQLVESGGGLVQPGGSLRLSCAASGFTFSSYWMSWVRQAPGKGLEWVANIKQDGSEKYYVDSVKGRFTISRDNAKNSLYLQMNSLRAEDTAVYYCARDEDVAAALDYWGQGTLVTVSS
VL: SYVLTQPPSVSVAPGKTARITCGGNNIGSKSVHWYQQKPGQAPVLVIYYDSDRPSGIPERFSGSNSGNTATLTISRVEAGDEADYYCQVWDSSSDHPERVFGGGTKLTVL
For the molecule B4, the fold over isotype (median fluorescence intensity) (fold over isotype) in assay [3] is 1.65.

B5: antibody 452 (antibody, V domains shown)
VH: QVQLVESGGGLVKPGGSLRLSCAASGFTFSDYYLSWIRQAPGKGLEWVSYISSSGSNIYYADSVKGRFTISRDNAKNSLYLQMNSLRADDTAVFYCARAGRYCSGGSCRVEYFQHWGQGTLVTVSS
VL: SYELTQPPSVSVSPGQTARITCSGDALPKQYAYWYQQKPGQAPVLVIYKDNERPSGIPERFSGSSSGTTATLTISGVQAEDEADYYCQSADSSGTVVFGGGTKLTVL
As to B5, in assay [2], the median fluorescence fold over isotype (fold over isotype control) was 854.

B6: antibody 337 (antibody, V domains shown)
VH: QVQLVESGGGVVQPGRSLRLSCAASGFTFSSYGMHWVRQAPGKGLEWVAIIWYDGSNKYYADSVKGRFTISRDNSKNTLYLQMNSLRAEDTAVYYCAKDTGGYCSGGSCYPESYFDYWGQGTLVTVSS
VL: SYVLTQPPSVSVAPGKTARITCGGNNIGSKSVHWYQQKPGQAPVLVIYYDSDRPSGIPERFSGSNSGNTATLTINRVEAGDEADYYCQVWDGSSDHLYVFGTGTKVTVL
As for B6, the bead binding signal (fold over isotype) (fold over isotype) in assay [2] was 756.

B7: anti-SARS-CoV-2 antibody 311 (antibody, V domains shown)
VH: QVQLQESGPGLVKPSETLSLTCTVSGYSISSGYYWGWIRQPPGKGLEWIGSIYHSGSTYYNPSLKSRVTISVDTSKNQFSLKLSSVTAADTAVYYCAREETLGSSWYESYIDYWGQGTLVTVSS
VL: SYVLTQPPSVSVAPGKTARITCGGNNIGSKSVHWYQQKPGQAPVLVIYYDSDRPSGIPERFSGSNSGNTATLTISRVEAGDEADYYCQVWDSSSDHPRVFGGGTKLTVL
B7: the fold over isotype control (median fluorescence) (fold over isotype) in assay [1] was 1.11 and 1.14.

B8: antibody 493 (antibody, V domains shown)
VH: EVQLVESGGGLIQPGRSLRLSCAASGFTVSITYMSWVRQAPGKGLEWVSLIYSGGSSYYADSVKGRFTISRDNSKNTLYLQMNSLRAEDTAVYYCATTMVRGVIISYYYGMDVWGQGTTVTVSS
VL: QSALTQPASVSGSPGQSITISCTGTSSDVGGYNYVSWYQQHPGKAPKLMIYEVSNRPSGVSNRFSGSKSGNTASLTISGLQAEDEADYYCSSYTSSSTLVFGGGTKLTVL
For the molecule B8, the median fluorescence, fold over isotype control (fold over isotype) in assay [3] stood at 1.1.

B9: antibody 390 (antibody, V domains shown)
VH: EVQLVESGGGLIQPGGSLRLSCAASGFTVSSNYMSWVRQAPGKGLEWVSIIYSGGSTYYADSVKGRFTISRDNSKNTLYLQMNSLRAEDSAVYSCATTMVRGLIISYYYGMDVWGQGTTVTVSS
VL: QSALTQPASVSGSPGQSITISCTGTSSDVGGYNYVSWYQQHPGKAPKLMIYEVSNRPSGVSNRFSGSKSGNTASLTISGLQAEDEADYYCSSYTSSSTLVFGGGTKLTVL
Regarding B9, the fold over isotype control (median fluorescence) (fold over isotype) in assay [2] was 637 and 341 and 318.

B10: antibody 392 (antibody, V domains shown)
VH: QVQLQESGPGLVKPSGTLSLTCAVSGGSISSSNWWSWVRQPPGKGLEWIGEIYHSGSTNYNPSLKSRVTISVDKSKNQFSLKLSSVTAADTAVYYCARGWRATLYGMDVWGQGTTVTVSS
VL: QSALTQPASVSGSPGQSITISCTGTSSDVGSYNLVSWYQQHPGKAPKLMIYEVSKRPSGVSNRFSGSKSGNTASLTISGLQAEDEADYYCCSYAGSSTWVFGGGTKLTVL
B10 had a fold over isotype control (median fluorescence) (fold over isotype) in assay [2] of 509.

B11: antibody 413 (antibody, V domains shown)
VH: EVQLVESGGGLIQPGGSLRLSCAASGFTVSGNYMNWVRQAPGKGLEWVSVIYSGGSTYYADSVKGRFTISRANSKNTLYLQMNSLRAEDTAVYYCASTSLVRGLIILYYYGMDVWGQGTTVTVSS
VL: QSALTQPASVSGSPGQSITISCTGTSSDVGGYNYVSWYQQHPGKAPKLMIYEVSNRPSGVSNRFSGSKSGNTASLTISGLQAEDEADYYCSSYTSSSTLVFGGGTKLTVL
Take B11: in assay [2], the median fluorescence fold over isotype (fold over isotype control) was 969 and 367 and 416.

B12: antibody 416 (antibody, V domains shown)
VH: EVQLVESGGGLVQPGRSLRLSCAASGFTFDDYAMHWVRQAPGKGLEWVSGISWNSGSIGYADSVKGRFTISRDNAKNSLYLQMNSLRAEDTALYYCAKDLAWLSGGMDVWGQGTTVTVSS
VL: not shown
B12 yielded a median fluorescence fold over isotype (fold over isotype control) in assay [2] of 110.

B13: antibody 315 (antibody, V domains shown)
VH: QVQLVQSGSELKKPGASVKLSCQASGYSFTNHAMNWVRQAPGQGLEWMGWINTNTGNPTYAQGFTGRFVFSLDTSVSTTYLHISSLKAEDTAVYYCARASARPGVATNLDFWGQGTLVVVSS
VL: DIQMTQSPSSLSASVGDRVTITCRASQNIDNYLNWYQQKPGKAPKLLIYAASRLHSGVPSRFSGSGSGTDFTLIISSLQPEDLATYYCQQSYSNPLTFGPGTKVDIR
B13 showed a bead binding signal (fold over isotype) (fold over isotype) in assay [2] of 592.

B14: antibody 362 (antibody, V domains shown)
VH: QVQLVESGGGVVQPGRSLRLSCAASGFNLSNYAMHWVRQASGKGLEWVSLISYDGSVKYYTDSVKGRFTVSGDNSKNTLFLQMNSLRPDDSALYYCVRGGVSGPNSFDMWGQGTTVTVSS
VL: DVVMTQSPLSLPVTLGQPATISCRSSQSLVYSDGNTYVNWFQQRPGQSPRRLIYQVSIRASGVPDRFSGSGSGTDFALKISRVEAEDVGVYYCMQGTHWPVTFGQGTKVEIK
Molecule B14 displayed a bead binding signal (fold over isotype) (fold over isotype) in assay [2] of 503. Moreover, the fold over isotype (median fluorescence intensity) (fold over isotype) in assay [3] stood at 9.45.

B15: antibody 325 (antibody, V domains shown)
VH: QVQLQESGPGLVKPSQTLSLTCTVSGGSISGGGYYWSWIRQHPGKGLEWIGYIYYSGSTYYNPSLQSRVTISVDTSKNQFSLKLSSVTAADTAVYYCARVGTSSVWYFDYWGQGTLVTVSS
VL: QSALTQPRSVSGSPGQSVTISCTGTSSDVGGYNYVSWYQQHPGKAPKLMIYDVTKRPSGVPDRFSGSKSGNTASLTISGLQAEDEADYYCSSYAGSWVFGGGTKLTVL
In assay [3], B15 had a fold over isotype (median fluorescence intensity) (fold over isotype) of 1.08.
